B1: FGF23: recombinant mouse FGF23, 6His-tagged Tyr25-Val251 (Arg179Gln) (R&D Systems) (protein)
chain: YPDTSPLLGSNWGSLTHLYTATARTSYHLQIHRDGHVDGTPHQTIYSALMITSEDAGSVVITGAMTRRFLCMDLHGNIFGSLHFSPENCKFRQWTLENGYDVYLSQKHHYLVSLGRAKRIFQPGTNPPPFSQFLARRNEVPLLHFYTVRPRRHTQSAEDPPERDPLNVLKPRPRATPVPVSCSRELPSAEEGGPAASDPLGVLRRGRGDARGGAGGADRCRPFPRFV
modifications: left off: small tags and cut ends
B2: FGF2: recombinant mouse FGF2 (Ala11-Ser154) (R&D Systems) (protein)
chain: ALPEDGGAAFPPGHFKDPKRLYCKNGGFFLRIHPDGRVDGVREKSDPHVKLQLQAEERGVVSIKGVCANRYLAMKEDGRLLASKCVTEECFFFERLESNNYNTYRSRKYSSWYVALKRTGQYKLGSKTGPGQKAILFLPMSAKS

How the values were obtained:
C57BL/6 mice = experiment: Intra-myocardial injection of FGF23 in mice; type: in vivo, mouse; settings: 7.5 ng FGF23 intra-myocardial
Procedure: Twelve-week old adult C57BL/6 mice (Jackson Laboratories) underwent cardiac surgery using a standard operative procedure that has been described previously for intra-myocardial implantation of stem cells (Amado et al., Proc. Natl. Acad. Sci. U.S.A., 102(32):11474-11479, 2005). All procedures were performed by a single investigator who was blinded to the specific treatment group. All protocols and experimental procedures were approved by the Institutional Animal Care and Use Committee at the University of Miami Miller School of Medicine. Briefly, mice were anesthetized with isoflurane and an incision was made between the 3rd and 4th rib to reveal a cardiac window. Three injections of purified recombinant murine FGF23 in PBS or PBS alone were delivered into the free wall of the left ventricle via a 30-gauge needle attached to a standing Hamilton syringe. At each of the three sites, 10 μl were injected for a total of 30 μl containing a total of 7.5 ng FGF23. Cardiac function was evaluated by Vevo 770 imaging system (Visual Sonics, Toronto, Canada) at baseline and 2 weeks after surgery. Long and short axis 2D parasternal views and short axis M mode views were recorded under general anesthesia with isoflurane inhalation delivered through a nose mask. The heart rate was maintained above 400 bpm with controlled body temperature set to 37° C. At 7- and 14-days post-injection, animals were sacrificed, hearts were isolated, perfused ex-vivo (6 ml of 10% Formalin with 4 ml of 20 mM KCl), stored overnight in 10% formalin for fixation, and then serially sectioned (7 μm slices) and stained with hematoxylin and eosin. Age-matched untreated animals were sacrificed at 14 weeks of life. […]
Short-axis cardiac sections were used to quantify myocardial thickness by measuring the distance from the inner to the outer myocardial zone at the mid-chamber zone. […] Since klothro-ablated kl/kl mice display severe growth retardation with small hearts (Kuro-o et al., Nature, 390(6655):45-51, 1997), we also measured relative wall thickness calculated as two times the anterior wall thickness divided by left ventricular internal diameter. Total RNA was isolated from flash frozen hearts using TRIzol (Invitrogen) and RT-PCR analyses were performed as described above.
We measured cross-sectional surface area of cardiac myocytes in paraffin-embedded short-axis sections of the heart. Briefly, 7 μm thick sections were deparaffinized according to our established protocols. To specifically label cardiac myocytes, we used mouse monoclonal MF20 antibody against sarcomeric myosin at 1:200 and Cy5-conjugated donkey-anti mouse (Invitrogen) as secondary antibody at 1:400. To visualize nuclei, fixed tissue was incubated with 4′,6-diamidino-2-phenylindole (DAPI; 400 ng/ml in PBS) for 5 minutes. To visualize cellular borders, fixed tissue was incubated with wheat germ agglutinin (WGA) conjugated to Alexa Fluor 555 (Invitrogen) at 1 mg/ml in PBS containing 10 mM sodium azide. Immunofluorescence images were taken on a Leica TCS-SP5 confocal microscope with a 63× oil objective. Leica AF6000 fluorescence software was used to quantify cross-sectional cell surface area of 25 cells per field at four fields along the mid-chamber free wall based on WGA-positive staining.
Blood was collected at sacrifice via cardiac puncture and was centrifuged at 4° C. and 14,000 rpm for 15 minutes. Plasma supernatants were collected, stored at −80° C., and subsequently analyzed in batches for FGF23 (C-terminal mouse assay, Immutopics), PTH (1-84 assay, Alpco Immunoassays), and phosphate, calcium, BUN and creatinine (Ortho Vitros 250 Chemistry Analyzer).

[1] = Pharmacokinetic study of FGF23 in rats; type: in vivo, rat
Procedure: High systemic levels of FGF23 results in left ventricular hypertrophy in mice. […] Therefore, we administered FGF23 intravenously to determine if systemically elevated FGF23 levels could also induce LVH. We injected 40 μg/kg of recombinant FGF23 dissolved in 200 μl of PBS into the tail vein of adult wild type mice twice daily for 5 days with eight hours between daily doses. The dose of FGF23 was chosen based on published reports in which a similar dose stimulated ERK phosphorylation and increased Egr-1 expression (Urakawa et al., Nature, 444(7120):770-774, […]). The frequency of injections was chosen based on a pharmacokinetic study of adult wild type rats in which we injected a single dose of 40 μg/kg of FGF23. […] Thus, we estimated that two daily injections of 40 μg/kg would provide elevated FGF23 levels for at least 8 hours per day in mice. Control animals underwent the same injection schedule using 200 μl of PBS alone. On the morning of day 6, blood was collected for assay of FGF23, mice were sacrificed and the hearts examined.

isolated NRVM = experiment: Ras/MAPK signaling (phospho-FRS2α, phospho-ERK1/2) Western blot in NRVM; type: cell-based, rat; settings: 30 minutes, FGF alone
Procedure: HEK293 cells, NRVM or NMVM were treated with growth factors for 30 minutes to analyze activation of signal transduction mediators, or for 48 hours to analyze expression levels of hypertrophic marker proteins. Cells were scraped from 6-well plates using 500 μl CHAPS extraction buffer (20 mM Tris-HCl pH7.5, 500 mM NaCl, 0.5% CHAPS, protease inhibitor cocktail (Roche), protein phosphatase inhibitors [Sigma-Aldrich]) and incubated on ice for 30 minutes. The cell lysate was centrifuged at 14,000 rpm and 4° C. for 30 minutes, and the supernatant boiled in sample buffer and analyzed by SDS-PAGE and immunoblotting. For protein extraction from mouse hearts, tissue was isolated, minced and homogenized in RIPA extraction buffer (50 mM Tris-HCl pH 7.5, 200 mM NaCl, 1% Triton X-100, 0.25% DOC, 1 mM EDTA, 1 mM EGTA, protease and phosphatase inhibitors) at 1:10 (w:v), and protein lysates were prepared as described above. […]

Molecule	cross-sectional surface area of cardiac myocytes (WGA) (C57BL/6 mice)	expression of β-MHC, ANP and BNP (C57BL/6 mice)	α-MHC and MCAD mRNA levels (C57BL/6 mice)	thickness of the left ventricular free wall (C57BL/6 mice; day 7, vs vehicle)	left ventricular internal diameter in diastole (C57BL/6 mice; day 14)	relative wall thickness (C57BL/6 mice; day 14)	thickness of the left ventricular free wall (C57BL/6 mice; day 14)	ratio of heart weight to tibial length (C57BL/6 mice; day 14, vs vehicle)	thickness of the interventricular septum (C57BL/6 mice; day 14, vs vehicle)	levels of FGF23, phosphate, calcium, PTH, BUN, or creatinine vs vehicle (C57BL/6 mice; days 7 and 14)	ejection fraction (C57BL/6 mice; echocardiography over time)	half-life of circulating FGF23 ([1]; adult wild type rats, single dose of 40 μg/kg) [min]	plasma levels ([1]; rats, single dose 40 μg/kg, four hours post injection)	levels of phosphorylated FRS2α and ERK1/2 (isolated NRVM)
B1	significant increase	increase	decrease	significant increase	significantly decreased	increased	increased further	significantly increased	increased significantly	no significant differences	no change	30	remained elevated above baseline	
B2														increased
